# According to publication PMC5779224 (2017):
# B1: AnkB_AI-c (aa 828–852) [human] / AnkB_MBD (AnkB ANK repeats only, aa 28–827) [human] (parent complex)
# chain 1: TEKHKLNVPETMTEVLDVSDEEGDD
# chain 2: KSDSNASFLRAARAGNLDKVVEYLKGGIDINTCNQNGLNALHLAAKEGHVGLVQELLGRGSSVDSATKKGNTALHIASLAGQAEVVKVLVKEGANINAQSQNGFTPLYMAAQENHIDVVKYLLENGANQSTATEDGFTPLAVALQQGHNQAVAILLENDTKGKVRLPALHIAARKDDTKSAALLLQNDHNADVQSKMMVNRTTESGFTPLHIAAHYGNVNVATLLLNRGAAVDFTARNGITPLHVASKRGNTNMVKLLLDRGGQIDAKTRDGLTPLHCAARSGHDQVVELLLERGAPLLARTKNGLSPLHMAAQGDHVECVKHLLQHKAPVDDVTLDYLTALHVAAHCGHYRVTKLLLDKRANPNARALNGFTPLHIACKKNRIKVMELLVKYGASIQAITESGLTPIHVAAFMGHLNIVLLLLQNGASPDVTNIRGETALHMAARAGQVEVVRCLLRNGALVDARAREEQTPLHIASRLGKTEIVQLLLQHMAHPDAATTNGYTPLHISAREGQVDVASVLLEAGAAHSLATKKGFTPLHVAAKYGSLDVAKLLLQRRAAADSAGKNGLTPLHVAAHYDNQKVALLLLEKGASPHATAKNGYTPLHIAAKKNQMQIASTLLNYGAETNIVTKQGVTPLHLASQEGHTDMVTLLLDKGANIHMSTKSGLTSLHLAAQEDKVNVADILTKHGADQDAHTKLGYTPLIVACHYGNVKMVNFLLKQGANVNAKTKNGYTPLHQAAQQGHTHIINVLLQHGAKPNATTANGNTALAIAKRLGYISVVDTLKVVTEEVTTTTTTI
# B2: AnkG linker ΔAI-c (aa 861–920) [rat] / AnkG 38–855 (AnkG MBD-AI-c protein; MBD + partial AI-c) [rat] (parent complex)
# chain 1: KASAPEKLSDGEYISDGEEGEDAITGDTDKYLGPQDLKELGDDSLPAEGYVGFSLGARSA
# chain 2: KSDANASYLRAARAGHLEKALDYIKNGVDVNICNQNGLNALHLASKEGHVEVVSELLQREANVDAATKKGNTALHIASLAGQAEVVKVLVTNGANVNAQSQNGFTPLYMAAQENHLEVVRFLLDNGASQSLATEDGFTPLAVALQQGHDQVVSLLLENDTKGKVRLPALHIAARKDDTKAAALLLQNDTNADIESKMVVNRATESGFTPLHIAAHYGNINVATLLLNRAAAVDFTARNDITPLHVASKRGNANMVKLLLDRGAKIDAKTRDGLTPLHCGARSGHEQVVEMLLDRAAPILSKTKNGLSPLHMATQGDHLNCVQLLLQHNVPVDDVTNDYLTALHVAAHCGHYKVAKVLLDKKANPNAKALNGFTPLHIACKKNRIRVMELLLKHGASIQAVTESGLTPIHVAAFMGHVNIVSQLMHHGASPNTTNVRGETALHMAARSGQAEVVRYLVQDGAQVEAKAKDDQTPLHISARLGKADIVQQLLQQGASPNAATTSGYTPLHLSAREGHEDVAAFLLDHGASLSITTKKGFTPLHVAAKYGKLEVASLLLQKSASPDAAGKSGLTPLHVAAHYDNQKVALLLLDQGASPHAAAKNGYTPLHIAAKKNQMDIATSLLEYGADANAVTRQGIASVHLAAQEGHVDMVSLLLSRNANVNLSNKSGLTPLHLAAQEDRVNVAEVLVNQGAHVDAQTKMGYTPLHVGCHYGNIKIVNFLLQHSAKVNAKTKNGYTPLHQAAQQGHTHIINVLLQNNASPNELTVNGNTALAIARRLGYISVVDTLKVVTEEIMTTTTITEKHKMNVPETMNEVLDMS
# B3: AnkB_AI-b (aa 865–896) [human] / AnkB 28–847 (MBD + partial AI-c) [human] (parent complex)
# chain 1: EDLKELGDDSLPSSQFLDGMNYLRYSLEGGRS
# chain 2: KSDSNASFLRAARAGNLDKVVEYLKGGIDINTCNQNGLNALHLAAKEGHVGLVQELLGRGSSVDSATKKGNTALHIASLAGQAEVVKVLVKEGANINAQSQNGFTPLYMAAQENHIDVVKYLLENGANQSTATEDGFTPLAVALQQGHNQAVAILLENDTKGKVRLPALHIAARKDDTKSAALLLQNDHNADVQSKMMVNRTTESGFTPLHIAAHYGNVNVATLLLNRGAAVDFTARNGITPLHVASKRGNTNMVKLLLDRGGQIDAKTRDGLTPLHCAARSGHDQVVELLLERGAPLLARTKNGLSPLHMAAQGDHVECVKHLLQHKAPVDDVTLDYLTALHVAAHCGHYRVTKLLLDKRANPNARALNGFTPLHIACKKNRIKVMELLVKYGASIQAITESGLTPIHVAAFMGHLNIVLLLLQNGASPDVTNIRGETALHMAARAGQVEVVRCLLRNGALVDARAREEQTPLHIASRLGKTEIVQLLLQHMAHPDAATTNGYTPLHISAREGQVDVASVLLEAGAAHSLATKKGFTPLHVAAKYGSLDVAKLLLQRRAAADSAGKNGLTPLHVAAHYDNQKVALLLLEKGASPHATAKNGYTPLHIAAKKNQMQIASTLLNYGAETNIVTKQGVTPLHLASQEGHTDMVTLLLDKGANIHMSTKSGLTSLHLAAQEDKVNVADILTKHGADQDAHTKLGYTPLIVACHYGNVKMVNFLLKQGANVNAKTKNGYTPLHQAAQQGHTHIINVLLQHGAKPNATTANGNTALAIAKRLGYISVVDTLKVVTEEVTTTTTTITEKHKLNVPETMTEVLDVSD
# B4: AnkB_AI-a peptide (aa 1623–1635) [human] / AnkB_MBD (AnkB ANK repeats only, aa 28–827) [human] (parent complex)
# chain 1: HPPIVSEEDISVG
# chain 2: B1 chain 2
# Variants of: B1
# Experiment: ITC; parent: 360 nM
row,Variant,Kd [µM]
1,chain 1 TEKHKLNVPETQTEVLDVSDEEGDD [chain 1 M12Q],4.4
2,chain 1 TEKHKLKVPETMTEVLDVSDEEGDD [chain 1 N7K],2.7
3,chain 1 TEKHKLNVPETMTEVQDVSDEEGDD [chain 1 L16Q],3.9

# Variants of: B1
# Experiment: ITC; parent: 360 nM
# Remark: another data set of the same source
row,Variant,Kd [µM]
1,chain 2 N568A,2.4

# Variants of: B2
# Experiment: ITC; parent: 1.6e+03 nM
row,Variant,Kd [µM]
1,"chain 2 I240Q, chain 2 L273Q",3.9
2,"chain 2 F104Q, chain 2 F137Q",2.6

# Variants of: B3
# Experiment: ITC; parent: 2.7e+03 nM
row,Variant,Kd [µM]
1,"chain 2 I240Q, chain 2 L273Q",8.5

# Variants of: B3
# Experiment: ITC; parent: 2.7e+03 nM
# Remark: another data set of the same source
row,Variant,Kd [µM]
1,chain 1 EDLKELGDDSLPSSQFLDGMNALRYSLEGGRS [chain 1 Y22A],16

# Variants of: B4
# Experiment: fluorescence polarisation; parent: 7.3e+03 nM
row,Variant,Kd [µM]
1,"chain 2 R10E, chain 2 R13E",43.8
